Data on 1 molecule can be found in US20240068024, “NUCLEIC ACID FRAGMENT AND USE THEREOF” (KYUSHU UNIVERSITY, NATIONAL UNIVERSITY CORPORATION, published 2024).

The target in data set [1] is Tn5 transposase (UniProt Q46731 Q46731:1-476). Put plainly: in situ transposition, 5 mM MgCl2, TAPS-DMF pH 8.5, 37 C; library band 200-400 bp. The conditions noted are these: chain copies: 2 (stated, dimer). As to the method: PBS was removed, 100 μL of a Tn5 solution (150 ng/well in 1×Tn5 dialysis buffer) was added thereto, and the mixture was allowed to stand at room temperature for 1 hour. The composition of the 1×Tn5 dialysis buffer was formed of 50 mM HEPES-KOH (pH 7.2), 0.1 M NaCl, 0.1 mM EDTA, 1 mM DTT, 0.1% Triton X-100, and 10% glycerol. As a result, the transposase was bound to the transposase binding sequence of the double-stranded nucleic acid fragment of each ChIL probe.
Subsequently, the 1×Tn5 dialysis buffer was removed, […] of a 1×TAPS-DMF buffer (10 mM TAPS-NaOH (pH 8.5), 5 mM MgCl₂, 10% N,N-dimethylformamide) was added thereto, and the mixture was allowed to stand at 37° C. for 1 hour. With this, the transposase bound to the double-stranded nucleic acid fragment of the ChIL probe was activated, and the double-stranded nucleic acid fragment of the ChIL probe was inserted in the vicinity of the binding region of the lysine 27 acetylation modified histone H3 on the genomic DNA.

Data set [2] addresses T7 RNA polymerase (UniProt P00573 P00573:1-883). The data set is described as follows: in situ transcription after Tn5 insertion in mouse liver section, library band 200-400 bp; 37 C overnight; no UV needed.

Chain of Tn5 transposase (Q46731 whole entry, the tested form may be a part, one chain of several): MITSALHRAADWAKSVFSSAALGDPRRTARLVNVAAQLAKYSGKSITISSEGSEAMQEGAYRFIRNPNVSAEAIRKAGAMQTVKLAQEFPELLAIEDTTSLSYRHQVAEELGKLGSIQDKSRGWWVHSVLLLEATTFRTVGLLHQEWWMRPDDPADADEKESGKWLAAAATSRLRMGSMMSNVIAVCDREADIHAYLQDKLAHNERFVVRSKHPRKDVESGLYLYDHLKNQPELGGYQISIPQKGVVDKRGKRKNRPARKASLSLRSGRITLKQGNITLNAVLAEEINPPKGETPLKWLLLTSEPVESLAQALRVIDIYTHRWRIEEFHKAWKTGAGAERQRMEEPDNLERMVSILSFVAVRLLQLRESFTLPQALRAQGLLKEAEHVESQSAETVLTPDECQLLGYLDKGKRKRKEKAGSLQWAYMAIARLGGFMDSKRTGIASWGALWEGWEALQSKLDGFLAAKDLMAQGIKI
Chain of T7 RNA polymerase (P00573 whole entry, one chain of several): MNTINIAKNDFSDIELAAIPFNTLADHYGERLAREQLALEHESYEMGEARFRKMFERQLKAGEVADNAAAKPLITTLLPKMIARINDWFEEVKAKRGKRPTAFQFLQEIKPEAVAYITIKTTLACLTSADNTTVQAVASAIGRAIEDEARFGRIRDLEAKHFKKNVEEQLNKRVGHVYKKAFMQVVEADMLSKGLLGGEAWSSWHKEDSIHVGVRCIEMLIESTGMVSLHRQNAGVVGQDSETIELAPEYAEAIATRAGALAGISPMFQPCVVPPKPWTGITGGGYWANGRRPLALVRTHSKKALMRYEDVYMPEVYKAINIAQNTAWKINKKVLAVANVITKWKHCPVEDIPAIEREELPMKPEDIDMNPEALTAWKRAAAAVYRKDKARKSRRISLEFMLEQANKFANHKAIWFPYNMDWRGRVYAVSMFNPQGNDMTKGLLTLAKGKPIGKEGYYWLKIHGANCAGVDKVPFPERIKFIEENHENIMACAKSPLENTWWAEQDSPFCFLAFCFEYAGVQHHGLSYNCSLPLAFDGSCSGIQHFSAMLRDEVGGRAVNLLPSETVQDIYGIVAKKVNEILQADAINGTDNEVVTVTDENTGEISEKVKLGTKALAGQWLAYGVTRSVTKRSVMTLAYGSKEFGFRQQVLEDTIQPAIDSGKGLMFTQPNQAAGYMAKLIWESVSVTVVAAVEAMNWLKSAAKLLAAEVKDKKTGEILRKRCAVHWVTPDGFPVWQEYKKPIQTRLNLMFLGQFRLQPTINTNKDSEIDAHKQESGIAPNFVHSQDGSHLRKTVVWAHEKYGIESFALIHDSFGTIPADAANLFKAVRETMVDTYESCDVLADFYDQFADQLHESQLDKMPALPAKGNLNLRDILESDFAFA

B1: control ChIL probe (original) (dsDNA)
DNA 1: CCCATGCATTAATACGACTCACTATAGGGTAGATCGCTCGTCGGCAGCGTCAGATGTGTATAAGAGACAG
DNA 2: CTGTCTCTTATACACATCTGACGCTGCCGACGAGCGATCTACCCTATAGTGAGTCGTATTAATGCATGGG
modifications: 5'-azide on SEQ 1 (click-linked to DBCO-PEG5 anti-mouse IgG); 5'-phosphate on SEQ 2
As for B1, the binding result in data set [1] and in data set [2] was “binds” each time.
